These results are taken from US20240108746A1 (Molecular Partners, published 2024).

Assay [1] deals with T1, TCE #1.
T1 construct: also called T-cell engager; α-CD123×α-CD33×α-CD3 T-cell engager
T1 chain: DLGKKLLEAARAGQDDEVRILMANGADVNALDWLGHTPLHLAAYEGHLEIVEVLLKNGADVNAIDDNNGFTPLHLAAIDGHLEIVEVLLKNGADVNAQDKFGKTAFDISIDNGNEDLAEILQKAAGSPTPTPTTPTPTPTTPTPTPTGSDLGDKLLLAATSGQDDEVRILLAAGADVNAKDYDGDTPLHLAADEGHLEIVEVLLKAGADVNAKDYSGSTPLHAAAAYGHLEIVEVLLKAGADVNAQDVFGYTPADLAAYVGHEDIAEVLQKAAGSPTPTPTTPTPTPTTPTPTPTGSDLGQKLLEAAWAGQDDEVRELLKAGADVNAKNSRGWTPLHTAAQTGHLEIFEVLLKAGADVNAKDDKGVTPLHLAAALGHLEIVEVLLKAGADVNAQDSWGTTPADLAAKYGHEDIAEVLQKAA
Briefly: not stated in the sentence (affinity quoted for the Incucyte experiment with TCE #1).

Assay [2] deals with T1, TCE #1. Kind of assay: cell-based or functional assay.
The target in assay [3] is T2, Biotinylated CD3-specific binding domain SEQ ID NO: 14 (biotinylated (site not stated)).
T2 construct: Ligand on the neutravidin (NLC) SPR chip
T2 chain: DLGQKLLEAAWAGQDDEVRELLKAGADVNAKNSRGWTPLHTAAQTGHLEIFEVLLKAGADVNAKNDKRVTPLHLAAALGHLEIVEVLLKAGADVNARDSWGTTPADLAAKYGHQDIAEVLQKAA
Briefly: SPR (ProteOn XPR36), 33 C, multi-trace; biotinylated ligand on chip, binder as analyte. How it is done:
(§1) Further SPR data were generated for Binders #1 to #9 (as listed in Example 1 above), binding to biotinylated CD3-specific binding domains having SEQ ID NOs: 13 and 14, respectively, on the chip. […] The blocking half-life (T_{1/2}) was then calculated.

Assay [4] concerns the target T3, Biotinylated CD3-specific binding domain SEQ ID NO: 13 (biotinylated (site not stated)).
T3 construct: Ligand on the neutravidin (NLC) SPR chip; The same domain is the CD3-specific domain of TCE #1
T3 chain: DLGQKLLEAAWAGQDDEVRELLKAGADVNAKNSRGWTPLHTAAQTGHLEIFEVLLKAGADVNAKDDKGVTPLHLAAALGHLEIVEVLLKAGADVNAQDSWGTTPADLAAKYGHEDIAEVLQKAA
Described as above. How it is done:
as §1

The target in assay [5] is T1, TCE #1. Kind of assay: cell-based or functional assay.
The target in assay [6] is T1, TCE #1. Briefly: cell-based or functional assay.
Assay [7] has as its target T2, Biotinylated CD3-specific binding …. Kind of assay: calculated from SPR koff (ln2/koff). How it is done:
as §1

Assay [8] deals with T3, Biotinylated CD3-specific binding …. Briefly: calculated from SPR koff (ln2/koff). How it is done: as §1
Assay [9] concerns the target T4, CD3-specific binding domain (SEQ ID NO:11).
T4 construct: Immobilized on beads in the sink chamber of the 'complex' Incucyte assay; also the first selection target; also called immobilized scavenger protein; bead-immobilized target protein
T4 chain: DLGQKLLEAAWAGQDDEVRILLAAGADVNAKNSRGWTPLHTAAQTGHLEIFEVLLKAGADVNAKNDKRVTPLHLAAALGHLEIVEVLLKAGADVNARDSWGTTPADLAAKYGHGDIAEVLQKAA
Kind of assay: bead-immobilized scavenger protein in the sink chamber of the complex Incucyte assay. How it is done: In the experiment described here, a TCE (TCE #1) was used as drug molecule.
As in Example 4, a tumor cell line expressing the TAA was used as target cell line which has been transduced with Incucyte Nuclight Red Lentivirus for detection by the Incucyte® camera. PanT-cells were added, together with different prodrug complexes. […] Additionally, unbound TCE #1 (10 pM) as well as background (i.e. no prodrug complex or TCE, but with beads) served as controls. Tumor cell growth was measured for a period of 5 days by determining the area of red objects detected by the Incucyte® camera.

Another assay concerns the target T5, TCE #2.
T5 construct: also called α-HSA×α-CD123×α-CD33×α-CD3 T-cell engager; TCE (with a half-life extending moiety)
T5 chain: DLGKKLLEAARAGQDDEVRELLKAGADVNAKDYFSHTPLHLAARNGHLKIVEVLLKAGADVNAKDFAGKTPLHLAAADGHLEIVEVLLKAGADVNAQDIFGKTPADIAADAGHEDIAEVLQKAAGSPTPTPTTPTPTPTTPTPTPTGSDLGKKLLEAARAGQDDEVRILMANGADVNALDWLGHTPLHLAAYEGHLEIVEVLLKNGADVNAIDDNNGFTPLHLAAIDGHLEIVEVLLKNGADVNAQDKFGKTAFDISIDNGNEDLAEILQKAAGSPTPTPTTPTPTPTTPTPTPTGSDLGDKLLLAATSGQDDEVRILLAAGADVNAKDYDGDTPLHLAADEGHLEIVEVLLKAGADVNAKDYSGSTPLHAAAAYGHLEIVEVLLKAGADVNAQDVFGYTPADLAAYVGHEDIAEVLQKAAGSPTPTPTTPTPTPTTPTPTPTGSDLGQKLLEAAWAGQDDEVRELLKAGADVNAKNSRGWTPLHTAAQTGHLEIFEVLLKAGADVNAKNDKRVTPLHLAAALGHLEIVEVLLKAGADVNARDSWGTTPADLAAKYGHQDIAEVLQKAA
Kind of assay: not stated (affinity to the CD3 effector moiety of TCE #2); Binder #4, double-digit pM.

Values joined by “and” are separate entries in the source; they are usually repeats but may differ in a detail not shown here. Identical values can stand only once. Bounds are passed on as bounds.

B1: Binder #5 (designed binder)
chain: MRGSHHHHHHGSDLGKKLLQAARAGQLDEVRELLKAGADVNAKDHYGWTPLHIAAQIGHLEIVEVLLKAGADVNAKDWIGYTPLHLAASHGHLEIVEVLLKAGADVNAKDVSGKTPLHVAAAHGHLEIVEVLLKAGADVNAQDKSGKTPADLAARAGHQDIAEVLQKAA
A word on the Kd: it is the concentration at which binding is half-saturated. Broadly, the koff is the rate constant with which the complex falls apart. A higher koff goes with a short-lived complex. In the assay with TCE #1 [1], B1 had a Kd not above 6 pM. Also, the “IC50, inhibition of TCE #1 (10 pM) mediated tumor cell killing (LDH release, OD492nm-620nm, 48 h)” value in the assay with TCE #1 [2] turned out to be 16 pM. Moreover, in assay [3], the equilibrium dissociation constant (Kd) was less than 0.02 nM and the koff was less than 5e-05 s⁻¹. In assay [4], this molecule showed an equilibrium dissociation constant (Kd) of less than 0.02 nM and a koff of less than 5e-05 s⁻¹. In the assay with TCE #1 [5], the “blocking of T-cell mediated tumor cell growth inhibition (simple Incucyte assay)” value is 4 fold molar excess of binder over TCE, the “inhibition of TCE activity (simple Incucyte assay)” value was 4 fold molar excess of binder over TCE and the “loss of inhibition of TCE activity (simple Incucyte assay)” value (“loss of inhibition of TCE activity” below) was 1 molar ratio binder:TCE. In addition, the “IC50, inhibition of TCE #1 (10 pM) mediated T-cell activation (CD25+ T-cells, % of CD8+, 48 h)” value with TCE #1 [6] was determined as 18.4 pM. For the same molecule, in [7], the “Blocking T1/2” value was more than 3.9 h. Also, the “Blocking T1/2” value in assay [8] was more than 3.9 h.

B2: Binder #8 (designed binder)
chain: MRGSHHHHHHGSDLGKKLLQAARAGQLDEVRELLKAGADVNAKDHYGWTPLHIAAQRGHLEIVEVLLKAGADVNAKDWLGWTPLHVAASHGHLEIVEVLLKAGADVNAKDLSGRTPLHIAARQGHLEIVEVLLKAGADVNAQDKSGKTPADLAARAGHQDIAEVLQKAA
As for B2, the Kd in assay [3] and in [4] was less than 0.02 nM throughout. For the same molecule, the koff in assay [3] and in assay [4] was less than 5e-05 s⁻¹ each time. The “Blocking T1/2” value in [7] and in assay [8] was more than 3.9 h in each case.

B3: Binder #7 (designed binder)
chain: MRGSHHHHHHGSDLGKKLLQAARAGQLDEVRELLKAGADVNAKDHYGWTPLHLAAAEGHLEIVEVLLKAGADVNAKDWIGYTPLHIAASHGHLEIVEVLLKAGADVNAKDSSGKTPLHIAAQHGHLEIVEVLLKAGADVNAQDKSGKTPADLAARAGHQDIAEVLQKAA
Regarding B3, the Kd in [3] and in assay [4] was less than 0.02 nM in each case. In addition, the koff in assay [3] and in assay [4] was less than 5e-05 s⁻¹ in each case. The “Blocking T1/2” value in assay [7] and in [8] was more than 3.9 h throughout.

B4: Binder #6 (designed binder)
chain: MRGSHHHHHHGSDLGKKLLQAARAGQLDEVRELLKAGADVNAKDQYGWTPLHLAAYSGHLEIVEVLLKAGADVNAKDWVGWTPLHLAASHGHLEIVEVLLKAGADVNAKDEAGRTPLHIAAKQGHLEIVEVLLKAGADVNAQDKSGKTPADLAARAGHQDIAEVLQKAA
Turning to B4, the Kd in assay [3] and in assay [4] was less than 0.02 nM throughout. For the same molecule, the koff in [3] and in assay [4] was less than 5e-05 s⁻¹ throughout. The “Blocking T1/2” value in assay [7] and in assay [8] was more than 3.9 h in each case.

B5: Binder #9 (designed binder)
chain: MRGSHHHHHHGSDLGKKLLQAARAGQLDEVRELLKAGADVNAKDHYGWTPLHLAASEGHLEIVEVLLKAGADVNAKDWIGWTPLHLAASFGHLEIVEVLLKAGADVNAKDVSGKTPLHIAARQGHLEIVEVLLKAGADVNAQDKSGKTPADLAARAGHQDIAEVLQLQKAA
Regarding B5, the “IC50, inhibition of TCE #1 (10 pM) mediated tumor cell killing (LDH release, OD492nm-620nm, 48 h)” value with TCE #1 [2] amounted to 51.8 pM. In assay [3], this molecule showed a Kd of less than 0.02 nM and an off-rate constant (koff) of less than 5e-05 s⁻¹. Further, in assay [4], the Kd was less than 0.02 nM and the koff is less than 5e-05 s⁻¹. In addition, in the assay with TCE #1 [5], the “inhibition of TCE activity (complex Incucyte assay, functional sink chamber with beads coated with CD3-specific binding domain)” value was 12.3 molar ratio binder:TCE; the “inhibition of TCE activity (complex Incucyte assay, sink chamber with non-coated beads)” value is 1.37 molar ratio binder:TCE; the “inhibition of TCE activity (simple Incucyte assay)” value is 1 molar ratio binder:TCE and 4 fold molar excess of binder over TCE; the “loss of inhibition of TCE activity” value is 1 molar ratio binder:TCE. In addition, the “IC50, inhibition of TCE #1 (10 pM) mediated T-cell activation (CD25+ T-cells, % of CD8+, 48 h)” value with TCE #1 [6] is 83.8 pM. In addition, the “Blocking T1/2” value in assay [7] was more than 3.9 h. In addition, in [8], the “Blocking T1/2” value was more than 3.9 h. For the same molecule, the binding result in [9] is on record as “binds”.

B6: Binder #2 (designed binder)
chain: MRGSHHHHHHGSDLGKKLLQAARAGQLDEVRELLKAGADVNAKDFKGLTPLHLAAAHGHLEIVEVLLKAGADVNAKDVYGWTPLHWAAASGHLEIVEVLLKAGADVNAKDWLGITPLHLAASHGHLEIVEVLLKAGADVNAQDKSGKTPADLAARAGHQDIAEVLQKAA
Usually kon stands for the rate constant with which the complex forms. For the molecule B6, the Kd in [3] stood at 0.032 nM; in assay [4], 0.028 nM. Besides, the koff was 2e-05 s⁻¹ in assay [3] and 4e-05 s⁻¹ in assay [4]. Besides, the kon in assay [3] amounted to 630000 M⁻¹ s⁻¹; in [4], 1.43e+06 M⁻¹ s⁻¹. Further, the “Blocking T1/2” value in [7] is 9.6 h; in assay [8], 4.8 h.

B7: Binder #3 (designed binder)
chain: MRGSHHHHHHGSDLGKKLLQAARAGQLDEVRELLKAGADVNAKDFKGLTPLHLAAAHGHLEIVEVLLKAGADVNAKDVYGWTPLHWAAAKGHLEIVEVLLKAGADVNAKDWLGITPLHLAASHGHLEIVEVLLKAGADVNAQDKSGKTPADLAARAGHQDIAEVLQKAA
As to B7, in assay [3], the Kd was 0.029 nM, the koff amounted to 1.9e-05 s⁻¹ and the on-rate constant (kon) came out at 650000 M⁻¹ s⁻¹. Besides, in assay [4], the Kd came out at 0.016 nM, the koff came out at 2.8e-05 s⁻¹ and the kon amounted to 1.7e+06 M⁻¹ s⁻¹. In addition, the “Blocking T1/2” value in assay [7] is 10.1 h. For the same molecule, the “Blocking T1/2” value in assay [8] is 6.9 h.

B8: Binder #4 (designed binder)
chain: MRGSHHHHHHGSDLGKKLLQAARAGQLDEVRELLKAGADVNAKDFKGLTPLHLAAEHGHLEIVEVLLKAGADVNAKDVYGWTPLHWAAAKGHLEIVEVLLKAGADVNAKDWLGITPLHLAASHGHLEIVEVLLKAGADVNAQDKSGKTPADLAARAGHQDIAEVLQKAA
Turning to B8, the Kd in the assay with TCE #2 was approximately 0.02 nM; in assay [3], 0.019 nM; in assay [4], 0.011 nM. Also, in the assay with TCE #1 [2], the “IC50, inhibition of TCE #1 (10 pM) mediated tumor cell killing (LDH release, OD492nm-620nm, 48 h)” value turned out to be 26.3 pM. In addition, the values for the koff in assay [3] and in assay [4] were 1.2e-05 s⁻¹ and 1.9e-05 s⁻¹, respectively. The values for the kon in assay [3] and in assay [4] were 630000 M⁻¹ s⁻¹ and 1.74e+06 M⁻¹ s⁻¹, respectively. In the assay with TCE #1 [5], the “loss of inhibition of TCE activity” value was 4 fold molar excess of binder over TCE. Besides, the “IC50, inhibition of TCE #1 (10 pM) mediated T-cell activation (CD25+ T-cells, % of CD8+, 48 h)” value in the assay with TCE #1 [6] stood at 33.8 pM. The “Blocking T1/2” value in assay [7] was 16 h; in assay [8] it was 10.1 h.
